Measurements: patent publication US20220323583A1, “Pharmaceutical Formulations of Bi-Specific Diabodies and Use of the Same” (MacroGenics, Inc., priority 2019, published 2022)

Experiments:
[1] = target: T1, recombinant Interleukin 3 Receptor (rhIL3-R) (Homo sapiens, UniProt P26951); assay: CD123 binding ELISA (relative potency); conditions: Relative Potency vs DART-A reference standard, 1250 ng/mL dosing solution, Stabilizer 2
T1 construct: The soluble IL3R was coated on the surface of an ELISA plate
T1 sequence (P26951 19-305 limits assumed): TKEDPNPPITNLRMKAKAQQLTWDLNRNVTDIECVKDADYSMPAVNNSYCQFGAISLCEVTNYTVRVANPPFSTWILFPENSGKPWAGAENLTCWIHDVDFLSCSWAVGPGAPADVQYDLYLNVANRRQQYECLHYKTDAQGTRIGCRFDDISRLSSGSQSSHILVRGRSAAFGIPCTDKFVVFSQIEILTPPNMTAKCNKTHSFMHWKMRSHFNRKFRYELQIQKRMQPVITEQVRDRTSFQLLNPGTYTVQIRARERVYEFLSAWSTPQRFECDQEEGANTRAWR
From the text: The soluble IL3R was coated on the surface of an ELISA plate. […] Quantification of bound probe antibody was achieved by addition of a colorimetric AP substrate (AP-Yellow 1 Component Substrate). Oxidation of AP-Yellow by AP yields a colored product that can be read at 405±10 nm. The assay was quantified by the intensity of color, measured using a spectrophotometer set to an optimal wavelength of 405±10 nm. Data were fitted to a four-parameter model with the following variable constraints: the maximum, minimum and slope of each dose response curve is set to be shared between all dose response curves on the plate; the EC50 was determined independently for each curve.

U937 cells = assay: Activity against CD123-negative targets; type: cell-based
[2] = FLR SE-HPLC protein recovery (monomer peak area); type: physicochemical
Protocol: Four levels of PS80 were tested during this study to evaluate the blocking activity of the surfactant. Briefly, test stabilizer solutions (10 mM sodium phosphate at pH 6.0, 150 mM sodium chloride, 1.6 mg/mL BA and 0, 0.05, 0.1, or 0.2 mg/mL PS80) were added to a normal saline containing IV bag. After thorough mixing, the DART-A DP formulation was added to the same IV bag. The bag containing the dosing solution was incubated at 25±2° C. and samples were collected at 0, 24 and 48 hours (the longest proposed administration time). Each sample was analyzed using FLR/SE-HPLC and verified using ELISA to quantify DART-A protein recovery.
For both low and high concentration infusions, samples were collected at 24, 48, and 72 hours from sampling point #5. […] The data was calculated against the expected TO sample to obtain the DART-A recovery. […] Similar to other binding ELISA assays, these ranges are within the typical variation of this type of bioassay (50%-150%).
FLR SE-HPLC analysis was performed to measure protein purity, monomer purity and protein stability. The FLR SE-HPLC configuration included a fluorescence (FLR) detector (λX=280 nm, λE=340 nm), a mobile phase composition of 350 mM Mobile Phase (175 mMNaH2PO4, 175 mMNa2SO, pH 6.3) and a TosoBio TSK G3000SWXL size exclusion column. Samples were diluted to 0.1 mg/mL and stored at 5±3° C. for 24 to 96 hours prior to analysis. Eight μg of protein (or 100 μL is sample concentration was below 0.1 mg/mL) was injected for each 30-minute run. HMW and LMW species and monomer peaks were monitored.

RS4-11 = assay: Redirected killing of target cell line; type: cell-based
[3] = tested on: soluble recombinant human CD3 (shCD3-Fos-Jun); assay: CD3 binding ELISA (relative potency); conditions: Relative Potency vs DART-A reference standard, 1250 ng/mL dosing solution, Stabilizer 2
soluble recombinant human CD3 (shCD3-Fos-Jun), sequence (P07766 23-126 limits assumed): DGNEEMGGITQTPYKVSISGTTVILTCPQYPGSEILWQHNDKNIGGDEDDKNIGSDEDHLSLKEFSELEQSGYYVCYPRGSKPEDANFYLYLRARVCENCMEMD
From the text: The two CD3 chains (delta and gamma) contain either the Fos protein or the Jun protein to enhance proper folding and functionality of the CD3 complex. […] The soluble CD3-Fos-Jun, was coated on the surface of an ELISA plate. […] Quantification of bound probe antibody was achieved by addition of a colorimetric AP substrate (AP-Yellow 1 Component Substrate). Oxidation of AP-Yellow by AP yields a colored product that can be read at 405±10 nm. The assay was quantified by the intensity of color, measured using a spectrophotometer set to an optimal wavelength of 405±10 nm. Data were fitted to a four-parameter model with the following variable constraints: the maximum, minimum and slope of each dose response curve is set to be shared between all dose response curves on the plate; the EC50 was determined independently for each curve.

Cynomolgus CD123-His = assay: Binding of DART-A to CD123 (ka, kd, KD); set-up: species or system cynomolgus monkey
MOLM13 tumors = assay: Human T cells and Molm13 tumor cells injected subcutaneously into NSG mice; type: in vivo, NOD/SCID gamma (NSG) knockout mice
Protocol: A dose of 0.004 mg/kg and higher was active in the MOLM13 model.

Osmolality = type: physicochemical; conditions: Stabilizer 2
[4] = tested on: primary AML specimens (BMNC, PBMC); assay: Incubation of primary AML bone marrow samples with DART-A; type: cell-based, human
From the text: Upregulation of granzyme B and perforin levels in both CD8 and CD4 T cells was observed.

Cynomolgus CD3ε/δ = Cynomolgus CD3ε/δ (Macaca fascicularis, UniProt Q95LI5); assay: Binding of DART-A to CD3 (ka, kd, KD); set-up: species or system cynomolgus monkey
Cynomolgus CD3ε/δ, sequence (Q95LI5 22-117 limits assumed): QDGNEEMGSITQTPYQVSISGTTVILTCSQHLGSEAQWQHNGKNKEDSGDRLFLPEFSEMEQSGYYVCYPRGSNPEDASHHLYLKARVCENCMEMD
Cynomolgus CD3ε/δ, sequence (Q95LI8 22-105 partner limits assumed): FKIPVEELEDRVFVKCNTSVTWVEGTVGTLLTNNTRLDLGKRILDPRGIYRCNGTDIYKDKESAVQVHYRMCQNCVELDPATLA

[5] = Post Infusion (Infusion Time = 48 Hrs)
[6] = Post Storage (T = 72 Hrs), room temperature

B1: DART-A: sequence-optimized CD123×CD3 bispecific diabody; chains SEQ ID NO:42 and SEQ ID NO:44 covalently bonded by a disulfide bond (protein)
chain 1: QAVVTQEPSLTVSPGGTVTLTCRSSTGAVTTSNYANWVQQKPGQAPRGLIGGTNKRAPWTPARFSGSLLGGKAALTITGAQAEDEADYYCALWYSNLWVFGGGTKLTVLGGGGSGGGGEVQLVQSGAELKKPGASVKVSCKASGYTFTDYYMKWVRQAPGQGLEWIGDIIPSNGATFYNQKFKGRVTITVDKSTSTAYMELSSLRSEDTAVYYCARSHLLRASWFAYWGQGTLVTVSSGGCGGGEVAALEKEVAALEKEVAALEKEVAALEK
chain 2: DFVMTQSPDSLAVSLGERVTMSCKSSQSLLNSGNQKNYLTWYQQKPGQPPKLLIYWASTRESGVPDRFSGSGSGTDFTLTISSLQAEDVAVYYCQNDYSYPYTFGQGTKLEIKGGGSGGGGEVQLVESGGGLVQPGGSLRLSCAASGFTFSTYAMNWVRQAPGKGLEWVGRIRSKYNNYATYYADSVKDRFTISRDDSKNSLYLQMNSLKTEDTAVYYCVRHGNFGNSYVSWFAYWGQGTLVTVSSGGCGGGKVAALKEKVAALKEKVAALKEKVAALKE
modifications: interchain disulfide bond; First Polypeptide Chain of DART-A; Second Polypeptide Chain of DART-A
% Potency, CD123 binding [1, 5]: 123% | % Potency, CD123 binding [1, 6]: 140% | % Potency, CD123 binding ([1]; T = 0): 146% | activity against CD123-negative targets (U937 cells): No activity | DART-A Monomer Peak Area in SE-HPLC FLR ([2]; Study 1, Stabilizer 1, dual-pump infusion RT, High (5000 ng/mL), Expected or Control (T0)): 1814623 EU * min | DART-A Monomer Peak Area in SE-HPLC FLR ([2]; Study 1, Stabilizer 1, dual-pump infusion RT, High (5000 ng/mL), T = 24 hours): 1483536 EU * min | DART-A Monomer Peak Area in SE-HPLC FLR ([2]; Study 1, Stabilizer 1, dual-pump infusion RT, High (5000 ng/mL), T = 48 hours): 1792023 EU * min | DART-A Monomer Peak Area in SE-HPLC FLR ([2]; Study 1, Stabilizer 1, dual-pump infusion RT, High (5000 ng/mL), T = 72 hours): 1804667 EU * min | DART-A Monomer Peak Area in SE-HPLC FLR ([2]; Study 1, Stabilizer 1, dual-pump infusion RT, Low (100 ng/mL), Expected or Control (T0)): 46006 EU * min | DART-A Monomer Peak Area in SE-HPLC FLR ([2]; Study 1, Stabilizer 1, dual-pump infusion RT, Low (100 ng/mL), T = 24 hours): 37026 EU * min | DART-A Monomer Peak Area in SE-HPLC FLR ([2]; Study 1, Stabilizer 1, dual-pump infusion RT, Low (100 ng/mL), T = 48 hours): 44708 EU * min | DART-A Monomer Peak Area in SE-HPLC FLR ([2]; Study 1, Stabilizer 1, dual-pump infusion RT, Low (100 ng/mL), T = 72 hours): 49122 EU * min | DART-A Monomer Peak Area in SE-HPLC FLR ([2]; Study 2, Stabilizer 1, cassette 25° C., 100 rpm, High (5000 ng/mL), T = 0): 41031471 EU * min | DART-A Monomer Peak Area in SE-HPLC FLR ([2]; Study 2, Stabilizer 1, cassette 25° C., 100 rpm, High (5000 ng/mL), T = 24 hours): 40529514 EU * min | DART-A Monomer Peak Area in SE-HPLC FLR ([2]; Study 2, Stabilizer 1, cassette 25° C., 100 rpm, High (5000 ng/mL), T = 48 hours): 41438367 EU * min | DART-A Monomer Peak Area in SE-HPLC FLR ([2]; Study 2, Stabilizer 1, cassette 25° C., 100 rpm, High (5000 ng/mL), T = 72 hours): 41582544 EU * min | DART-A Monomer Peak Area in SE-HPLC FLR ([2]; Study 2, Stabilizer 1, cassette 25° C., 100 rpm, Low (100 ng/mL), T = 0): 355660 EU * min | DART-A Monomer Peak Area in SE-HPLC FLR ([2]; Study 2, Stabilizer 1, cassette 25° C., 100 rpm, Low (100 ng/mL), T = 24 hours): 379757 EU * min | DART-A Monomer Peak Area in SE-HPLC FLR ([2]; Study 2, Stabilizer 1, cassette 25° C., 100 rpm, Low (100 ng/mL), T = 48 hours): 377121 EU * min | DART-A Monomer Peak Area in SE-HPLC FLR ([2]; Study 2, Stabilizer 1, cassette 25° C., 100 rpm, Low (100 ng/mL), T = 72 hours): 394028 EU * min | DART-A Monomer Peak Area in SE-HPLC FLR ([2]; Study 3, Stabilizer 1, cassette 37° C., 100 rpm, Low (100 ng/mL), T = 0): 397095 EU * min | DART-A Monomer Peak Area in SE-HPLC FLR ([2]; Study 3, Stabilizer 1, cassette 37° C., 100 rpm, Low (100 ng/mL), T = 72 hours): 368950 EU * min | DART-A Monomer Peak Area in SE-HPLC FLR ([2]; Study 3, Stabilizer 1, cassette 37° C., 100 rpm, second group, target concentration not given, T = 0): 41031489 EU * min | DART-A Monomer Peak Area in SE-HPLC FLR ([2]; Study 3, Stabilizer 1, cassette 37° C., 100 rpm, second group, target concentration not given, T = 72 hours): 39005201 EU * min | Max % Killing (RS4-11): 60% | % Potency, CD3 binding [3, 5]: 92% | % Potency, CD3 binding [3, 6]: 101% | % Potency, CD3 binding ([3]; T = 0): 111% | ka (± SD) (Cynomolgus CD123-His): 1.5 (± 0.3) × 10^6 M^−1s^−1 | kd (± SD) (Cynomolgus CD123-His): 4.0 (± 0.7) × 10^−4 s^−1 | MOLM13 tumor growth (MOLM13 tumors; 0.16, 0.5, 0.2, 0.1, 0.02 and 0.004 mg/kg dose levels): significantly inhibited | dose active in the MOLM13 model (MOLM13 tumors; mouse, in vivo): ≥ 4 µg/kg | Osmolality (Osmolality; 10 ng/mL dosing solution, Post Infusion (Infusion Time = 48 Hrs)): 274 mOsm/kg | Osmolality (Osmolality; 10 ng/mL dosing solution, Post Storage (T = 72 Hrs), room temperature): 275 mOsm/kg | Osmolality (Osmolality; 10 ng/mL dosing solution, T = 0): 275 mOsm/kg | Osmolality (Osmolality; 20 ng/mL dosing solution, Post Infusion (Infusion Time = 96 Hrs)): 276 mOsm/kg | Osmolality (Osmolality; 20 ng/mL dosing solution, Post Storage (T =72 Hrs), room temperature): 276 mOsm/kg | Osmolality (Osmolality; 20 ng/mL dosing solution, T = 0): 276 mOsm/kg | Osmolality (Osmolality; 1250 ng/mL dosing solution, Post Infusion (Infusion Time = 48 Hrs)): 276 mOsm/kg | Osmolality (Osmolality; 1250 ng/mL dosing solution, Post Storage (T = 72 Hrs), room temperature): 275 mOsm/kg | Osmolality (Osmolality; 1250 ng/mL dosing solution, T = 0): 275 mOsm/kg | leukemic cell population [4]: depletion of the leukemic cell population over time | residual T cells (CD4 and CD8) [4]: expansion of the residual T cells | ka (± SD) (Cynomolgus CD3ε/δ): 5.5 (± 0.5) × 10^5 M^−1s^−1 | kd (± SD) (Cynomolgus CD3ε/δ): 5.0 (± 0.9) × 10^−3 s^−1 | Kd (Cynomolgus CD3ε/δ; read-out: KD (± SD)): 9.2 ± 2.3 nM
